In experiment [1] the target is mouse PD-L1 protein (G&P Biosciences, cat #FCL3502B) (mouse) (UniProt Q9EP73). Description: ELISA, blocking of mouse PD-1 binding to mouse PD-L1 protein, 10 µM.
The target of experiment [2] is T1, recombinant human PD-L1 protein (Acro Biosystems, cat #EP-101 assay pair) (human, UniProt Q9NZQ7 19-238).
T1 construct: Bought protein; construct not described; also called hPD-L1; human PD-L1 (AcroBiosystems, cat #EP-101)
Description: ELISA, blocking of biotinylated human PD-1 binding to coated human PD-L1, 10 µM. Here is the method:
(§1) Unbound protein was removed by washing twice with PBS (pH 7.2-7.4), 2% BSA was added for 1.5 h at 37° C. to block the plate. Specific concentrations of the peptides were dispensed into the appropriate wells and incubated for 2 h at 37° C. […] This was followed by the addition of streptavidin-HRP and chromogenic substrate (R&D systems). The color reaction was terminated with 2N H₂SO₄, absorbance was recorded at OD450 and referenced to OD540.
(§2) In this Example, various properties of the peptides of SEQ ID NO:5, SEQ ID NO:6 and SEQ ID NO:7 were evaluated. The procedures for generating these values are described above in the beginning of the Examples section.
On the technique in general: ELISA stands for enzyme-linked immunosorbent assay.

Experiment [3] addresses T2, bovine serum albumin (bovine, UniProt P02769 25-607).
T2 construct: Specificity control in SPR; also called BSA
Description: SPR, BSA immobilised. A general note: Surface plasmon resonance follows binding to a sensor surface in real time, without labels.

Experiment [4] has as its target T3, recombinant human PD-L1 extracellular domain (ECD) protein (cat #FCL0784B, G&P Biosciences) (human, UniProt Q9NZQ7 19-238).
T3 construct: extracellular domain; Bought protein; also called hPD-L1 protein; human PD-L1 protein
Description: PD1/PD-L1 blocking assay of Table 5 (format not stated), 10 µM.

Experiment [5] deals with T3, recombinant human PD-L1 extracellular …. Description: SPR, PD-L1 immobilised. As to the method:
(§3) Evaluation of Binding Kinetics and Affinity By Surface Plasmon Resonance (SPR). […] PD-L1 protein was diluted to 10 μg/mL with sodium acetate buffer (pH 5.0, GE Healthcare, PA) and covalently coated onto a CM5 sensor chip (CM Dextran Sensor Chip, Biosensing Instrument) using the standard Amine Coupling Kit (GE Healthcare, PA). Approximately 6500 RU of PD-L1 protein were immobilized onto the chip. A second channel was used as a reference. HBS-EP+ buffer (GE Healthcare) was employed at a flow rate of 60 μL/min. […] The CM5 sensor chip was regenerated with 10 mM NaOH for 20 seconds. The results were analyzed using the software of Bi data analysis software.

For experiment [6] the target is unchanged. Description: blocking of the human CD80/PD-L1 interaction, 10 µM.
Experiment [7] shares this target. Briefly: SPR, human PD-L1 ECD immobilised on CM5 chip. Here is the method:
as §3
The PD-L1 protein was immobilized on a CM5 golden chip by the direct amine coupling method. […] In a recent study, scientists constructed several chimeric antigen receptor (CAR) T cells with different affinities to ICAM-1.

The target in experiment [8] is T4, mouse PD-L1 on 4T1 cancer cells (mouse, UniProt Q9EP73 19-290).
T4 construct: whole, on cells; also called mouse cancer cell line 4T1
Description: blocking of mouse PD-1 binding to 4T1 cells.

For experiment [9], the target named is T3, recombinant human PD-L1 extracellular …. Description: ELISA, blocking of PD-1 binding to coated human PD-L1 protein. Here is the method:
(§4) Various concentrations of peptides were loaded into the wells and incubated for 1 hour at room temperature. […] Streptavidin-HRP (R&D systems) and chromogenic substrate were added into the wells. OD₄₅₀ was then recorded and referenced to OD₅₄₀.

Experiment [10] shares this target. Description: blocking of the human CD80/PD-L1 interaction.
The target of experiment [11] is T2, bovine serum albumin. Briefly: SPR, albumin (BSA) immobilised, peptide series injected. As to the method:
as §3
Nonspecific binding of the peptides against bovine serum albumin (BSA) using SPR was measured. […] MCF-7 human cancer cells are PD-L1 deficient and used as a negative control in this study. […] Results are represented as the mean±SD (n=3).

In experiment [12] the target is T5, human PD-L1 on DU-145 cancer cells (human, UniProt Q9NZQ7 19-290).
T5 construct: whole, on cells; Endogenous PD-L1 of a PD-L1-positive human cancer cell line
Briefly: blocking of PD-1 binding to DU-145 cells.

The target of experiment [13] is T6, mouse PD-L1 protein (G&P Biosciences, cat #FCL3502B) (mouse, UniProt Q9EP73 19-239, limits assumed).
T6 construct: Bought protein; construct not described; also called mPD-L1 protein
Description: blocking of the mouse PD-1/PD-L1 interaction (text value, differs from Table 3); text of paragraph 79, not Table 3. As to the method:
as §4

For experiment [14], the target named is T6, mouse PD-L1 protein (G&P Biosciences, …). Description: ELISA, blocking of mouse PD-1 binding to coated mouse PD-L1 protein. Here is the method:
as §4

In experiment [15] the target is T1, recombinant human PD-L1 protein (Acro …). Briefly: competitive SPR, peptide preincubated with human PD-L1, injected over immobilised PD-1. As to the method:
BI-4500A SPR and a CM-5 sensor chip pre-functionalized with streptavidin (Biosensing Instrument Inc., Tempe, Ariz.) were employed for the SPR analysis. […] Data was analyzed with SPR Data Analysis Version 3.8.4 (Biosensing Instrument Inc., Tempe, Ariz.).
as §2

For experiment [16] the target is unchanged. Briefly: ELISA, blocking of biotinylated human PD-1 binding to coated human PD-L1. As to the method:
as §1

Experiment [17] has as its target T7, mouse PD-L1 (Acro Biosystems, cat #PD1-M5220) (mouse, UniProt Q9EP73 19-238).
T7 construct: Bought protein; construct not described; also called mPD-L1
Description: ELISA, blocking of biotinylated mouse PD-1 binding to coated mouse PD-L1. Here is the method: as §1, §2

The target of experiment [18] is T3, recombinant human PD-L1 extracellular …. Briefly: PD1/PD-L1 blocking assay of Table 5 (format not stated).

Positions of bridges follow the written chain, without caps; N, C: chain ends. No end group written: not given here.

This note sets out measurements from patent publication US20220119451A1 (published 2022).

T2 sequence (P02769 25-607 limits assumed): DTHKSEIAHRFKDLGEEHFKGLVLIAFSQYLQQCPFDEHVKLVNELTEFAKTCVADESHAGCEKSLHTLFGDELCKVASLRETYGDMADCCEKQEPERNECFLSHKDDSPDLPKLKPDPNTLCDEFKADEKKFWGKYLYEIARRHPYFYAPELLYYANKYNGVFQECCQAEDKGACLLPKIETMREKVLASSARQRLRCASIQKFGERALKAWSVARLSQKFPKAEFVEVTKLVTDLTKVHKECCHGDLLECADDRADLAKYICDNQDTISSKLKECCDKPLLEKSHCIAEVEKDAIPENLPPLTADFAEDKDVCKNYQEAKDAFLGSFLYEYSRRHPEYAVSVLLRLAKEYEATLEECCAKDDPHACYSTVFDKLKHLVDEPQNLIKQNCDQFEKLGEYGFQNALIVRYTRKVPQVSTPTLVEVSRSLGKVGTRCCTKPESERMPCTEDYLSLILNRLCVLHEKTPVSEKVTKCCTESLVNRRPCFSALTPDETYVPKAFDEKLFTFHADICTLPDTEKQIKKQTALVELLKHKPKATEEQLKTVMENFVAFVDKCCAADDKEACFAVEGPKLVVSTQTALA
T4 sequence (Q9EP73 19-290): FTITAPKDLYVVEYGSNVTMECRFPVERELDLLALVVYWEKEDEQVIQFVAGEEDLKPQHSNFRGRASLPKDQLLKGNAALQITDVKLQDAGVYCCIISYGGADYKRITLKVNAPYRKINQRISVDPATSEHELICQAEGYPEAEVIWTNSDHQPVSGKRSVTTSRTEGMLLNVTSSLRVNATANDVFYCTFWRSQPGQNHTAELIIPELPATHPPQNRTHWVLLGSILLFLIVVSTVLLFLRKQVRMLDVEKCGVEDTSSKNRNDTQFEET
T5 sequence (Q9NZQ7 19-290): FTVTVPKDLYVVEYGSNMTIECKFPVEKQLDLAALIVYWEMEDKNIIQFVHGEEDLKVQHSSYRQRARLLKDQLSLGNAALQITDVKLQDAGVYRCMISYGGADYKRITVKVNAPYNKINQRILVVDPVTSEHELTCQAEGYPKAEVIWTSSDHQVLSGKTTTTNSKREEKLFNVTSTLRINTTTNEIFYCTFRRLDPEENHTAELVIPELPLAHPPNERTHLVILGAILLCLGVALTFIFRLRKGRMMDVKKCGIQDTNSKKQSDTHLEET
T1 sequence (Q9NZQ7 19-238 limits assumed): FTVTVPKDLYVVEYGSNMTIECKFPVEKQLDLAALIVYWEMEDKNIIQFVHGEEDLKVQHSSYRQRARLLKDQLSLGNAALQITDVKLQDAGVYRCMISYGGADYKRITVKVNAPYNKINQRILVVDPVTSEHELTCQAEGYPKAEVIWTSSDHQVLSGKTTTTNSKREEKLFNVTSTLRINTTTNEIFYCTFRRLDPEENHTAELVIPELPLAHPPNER
T3 sequence (Q9NZQ7 19-238): as the sequence (Q9NZQ7 19-238 limits assumed) above
T6 sequence (Q9EP73 19-239 limits assumed): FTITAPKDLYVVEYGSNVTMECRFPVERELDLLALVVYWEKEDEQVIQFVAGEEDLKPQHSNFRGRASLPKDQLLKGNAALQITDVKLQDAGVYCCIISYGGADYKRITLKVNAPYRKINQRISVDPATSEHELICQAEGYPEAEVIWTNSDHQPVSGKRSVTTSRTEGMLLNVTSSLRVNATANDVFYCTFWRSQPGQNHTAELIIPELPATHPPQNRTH
T7 sequence (Q9EP73 19-238 limits assumed): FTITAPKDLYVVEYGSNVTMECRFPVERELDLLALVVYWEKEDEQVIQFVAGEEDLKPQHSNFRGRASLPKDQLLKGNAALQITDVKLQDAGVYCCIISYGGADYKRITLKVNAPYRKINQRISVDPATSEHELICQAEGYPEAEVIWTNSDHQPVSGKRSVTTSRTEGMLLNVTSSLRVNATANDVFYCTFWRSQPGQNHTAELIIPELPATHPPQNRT
Chain of mouse PD-L1 protein (G&P Biosciences, cat #FCL3502B) (mouse) (Q9EP73 19-239 limits assumed): as the sequence (Q9EP73 19-239 limits assumed) above

“anti-mouse PD-L1 antibody (BioXcell, 10F.9G2)” registered a blocking efficiency at 10 µM in [1] of 92%.

WHRSYYTWN (Truncated form of CLP002 (9 residues)) [CLP2TR3]: the “% Blocking efficiency at 10 µM (ELISA) hPD-L1” value in experiment [2] is 80%. In addition, the results for the Kd (in the experiment with bovine serum albumin [3]; in [5]) were 2050 nM and 258 nM, respectively. Moreover, in experiment [4], the “% Blocking efficiency at 10 µM” value was found to be 80%.

Take WHFSYNWRWLPP (not fully specified, 12-mer from phage display) [CLP003 peptide]: the “blocking efficiency at 10 µM” value in [6] was approximately 48%. Moreover, in experiment [7], the dissociation constant Kd worked out at 117 nM. Besides, in experiment [7], the koff was determined as 0.00162 s⁻¹. The association rate constant (kon) in experiment [7] amounted to 22600 M⁻¹ s⁻¹. Besides, the “Blocking Efficiency (%)” value is 50% in experiment [8], 60% in experiment [9], 56% in experiment [12] and 46% in experiment [14]. The IC50 in experiment [8] is 1000 nM; in experiment [9] it was 2220 nM; in experiment [10], 1620 nM; in experiment [12] it was 3050 nM; in experiment [13], 1960 nM; in [14], 2260 nM. Moreover, in the experiment with bovine serum albumin [11], the binding result is recorded as “no binding”.

For the molecule CHRSYYCWNLNT (disulfide 1-7, Cyclic variant of CLP002) [CLP2C21], the IC50 is 143 nM in [15], 440 nM in [16], 460 nM in experiment [17] and 6 nM in experiment [18]. The “% Blocking efficiency at 10 µM (ELISA) hPD-L1” value in experiment [2] is 85.9%. Besides, the dissociation constant (Kd) with bovine serum albumin [3] turned out to be 1240 nM; in experiment [5], 124 nM. The “% Blocking efficiency at 10 µM” value in [4] is 78%.

On to CHRSYYTWNLNC (disulfide 1-12, Cyclic variant of CLP002) [CLP2C14], for which the half-inhibitory concentration (IC50) in [15] stood at 119 nM; in experiment [16] it was 180 nM; in experiment [17], 550 nM; in experiment [18], 5 nM. Moreover, the “% Blocking efficiency at 10 µM (ELISA) hPD-L1” value in experiment [2] turned out to be 75%. For the same molecule, the figures for the dissociation constant Kd (with bovine serum albumin [3]; in [5]) were 408 nM and 2.78 nM, respectively. Further, the “% Blocking efficiency at 10 µM” value in experiment [4] came out at 75%.

Turning to WHRSYYTWNLNT (not fully specified, 12-mer from phage display) [CLP002 peptide], the “blocking efficiency at 10 µM” value in experiment [6] was approximately 48%. Also, the Kd in experiment [7] amounted to 366 nM. For the same molecule, the koff in [7] turned out to be 0.00145 s⁻¹. Further, the kon in experiment [7] stood at 4520 M⁻¹ s⁻¹. The “Blocking Efficiency (%)” value in [8] worked out at 61%; in [9] it was 85%; in [12] it was 80%; in experiment [14], 68%. The 50% inhibitory concentration (IC50) was found to be 2440 nM in experiment [8]; 2170 nM in experiment [9]; 2450 nM in [10]; 1430 nM in experiment [12]; 1510 nM in experiment [13]; 1910 nM in [14]. The binding result in the experiment with bovine serum albumin [11] is recorded as “no binding”.

In the case of HYPFRPHANQAS (not fully specified, 12-mer from phage display) [CLP001 peptide], the “blocking efficiency at 10 µM” value in experiment [6] was approximately 17%. For the same molecule, in experiment [7], the Kd was determined as 534 nM. Besides, the koff in experiment [7] amounted to 0.00281 s⁻¹. In experiment [7], the kon came out at 5190 M⁻¹ s⁻¹. Moreover, the “Blocking Efficiency (%)” value is 35% in experiment [8], 0% in experiment [9], 0% in experiment [12] and 34% in experiment [14]. In addition, the IC50 amounted to 910 nM in experiment [8] and 2430 nM in [14]. For the same molecule, the binding result in the experiment with bovine serum albumin [11] is “no binding”.

As to DYHDPSLPTLRK (not fully specified, 12-mer from phage display) [CLP004 peptide], in experiment [6], the “blocking efficiency at 10 µM” value is approximately 27%. For the same molecule, in [7], the Kd is 544 nM, the koff worked out at 0.00275 s⁻¹ and the on-rate (kon) worked out at 5140 M⁻¹ s⁻¹. In [8], the “Blocking Efficiency (%)” value was 34% and the IC50 is 730 nM. Also, in experiment [9], the “Blocking Efficiency (%)” value was 52% and the IC50 is 1170 nM. Besides, the binding result with bovine serum albumin [11] is “no binding”. Besides, in [12], the “Blocking Efficiency (%)” value came to 60% and the half-maximal inhibitory concentration (IC50) turned out to be 200 nM. In addition, in [14], the “Blocking Efficiency (%)” value turned out to be 48% and the IC50 amounted to 1910 nM.

As a reminder, the Kd is a measure of binding affinity in units of concentration. For orientation: koff means the first-order rate constant of dissociation. One may read the kon as a measure of how fast the partners come together. One may read the IC50 as the concentration that inhibits the measured activity by half.
